This test has as its target T1, prostate specific membrane antigen (PSMA) (human, UniProt Q04609 1-750).
T1 construct: whole, on cells; Target in all assays is PSMA on LNCaP (LNCap) cells or LNCaP membrane preparation; also called human PSMA
Briefly: ELISA on plates coated with LNCap membrane preparation; purified antibody; reference: J415 chimeric antibody. (In general: An ELISA detects its analyte on a solid surface through an enzyme-linked reagent.)

This note sets out measurements from patent US20040136998A1 (published 2004).

T1 sequence (Q04609 whole entry): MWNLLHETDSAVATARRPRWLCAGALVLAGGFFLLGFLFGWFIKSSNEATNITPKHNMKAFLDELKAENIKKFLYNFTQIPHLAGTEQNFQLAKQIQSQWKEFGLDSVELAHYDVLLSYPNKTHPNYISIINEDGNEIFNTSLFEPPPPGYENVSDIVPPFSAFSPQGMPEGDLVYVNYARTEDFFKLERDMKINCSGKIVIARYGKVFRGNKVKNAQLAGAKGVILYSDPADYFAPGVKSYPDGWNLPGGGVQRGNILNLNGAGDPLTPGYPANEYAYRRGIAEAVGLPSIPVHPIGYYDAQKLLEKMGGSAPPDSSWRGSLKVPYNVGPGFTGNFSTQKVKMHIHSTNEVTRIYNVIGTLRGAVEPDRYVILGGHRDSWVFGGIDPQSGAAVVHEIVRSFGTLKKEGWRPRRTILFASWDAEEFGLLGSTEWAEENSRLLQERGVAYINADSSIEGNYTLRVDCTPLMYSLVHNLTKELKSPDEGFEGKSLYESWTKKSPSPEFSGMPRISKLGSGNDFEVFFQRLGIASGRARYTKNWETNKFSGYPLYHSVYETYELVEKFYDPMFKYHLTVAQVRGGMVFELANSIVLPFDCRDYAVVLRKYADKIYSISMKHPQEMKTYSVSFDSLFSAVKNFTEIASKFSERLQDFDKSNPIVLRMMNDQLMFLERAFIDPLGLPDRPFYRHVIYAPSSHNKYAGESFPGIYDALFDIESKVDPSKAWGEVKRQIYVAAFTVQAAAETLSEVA

B1: deimmunized J415 antibody, heavy chain version 2 with light chain version 5 (antibody, V domains shown)
VH: EVKLEESGGGLVQPGGSMKISCVASGFTFSNYWMNWVRQTPEKGLEWVALIRSQSNNFATHYAESVKGRVIISRDDSKSSVYLQMNSLRAEDTAVYYCTRRWNNFWGQGTTVTVSS
VL: NIVMTQFPKSMSASAGERMTLTCKASENVGTYVSWYQQKPTQSPKMLIYGASNRFTGVPDRFSGSGSGTDFILTISSVQAEDLVDYYCGQSYTFPYTFGGGTKLEMK
For B1, the “fold less binding than the chimeric antibody” value stood at 2 fold.
